Tested on: Escherichia coli TOP10
Experiment: shrunken log2 fold change of peptide-encoding DNA abundance (4.5 h post-induction vs induction); higher = less antimicrobial activity (less host growth inhibition)
Details: time post-induction: 4.5 h; library: site-saturation at positions 5, 18, 19, 20
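Further: peptides expressed intracellularly from a pBAD plasmid library in pooled LB shake-flask culture, induced with 0.3% L-arabinose, DNA abundance read by NGS, three biological replicates, DESeq2 with apeglm shrinkage.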

Sequence: RRIRQRPPRLPRPRPRPPHHPRP
- shrunken log2 fold change: 0.972

Sequence: RRIRHRPPRLPRPRPRPNFFPRP
- shrunken log2 fold change: 0.307

Sequence: RRIRRRPPRLPRPRPRPQAFPRP
- shrunken log2 fold change: 0.0653

Sequence: RRIRWRPPRLPRPRPRPMTFPRP
- shrunken log2 fold change: -0.108

Sequence: RRIRQRPPRLPRPRPRPDCQPRP
- shrunken log2 fold change: -0.0643

Sequence: RRIRIRPPRLPRPRPRPVETPRP
- shrunken log2 fold change: 0.156

Sequence: RRIRCRPPRLPRPRPRPCLTPRP
- shrunken log2 fold change: -0.17

Sequence: RRIRQRPPRLPRPRPRPAEPPRP
- shrunken log2 fold change: 0.157

Sequence: RRIRTRPPRLPRPRPRPAMWPRP
- shrunken log2 fold change: 0.35

Sequence: RRIRWRPPRLPRPRPRPSQRPRP
- shrunken log2 fold change: -0.0741

Sequence: RRIRVRPPRLPRPRPRPEAKPRP
- shrunken log2 fold change: 0.293

Sequence: RRIRCRPPRLPRPRPRPKAQPRP
- shrunken log2 fold change: 0.262

Sequence: RRIRVRPPRLPRPRPRPPAIPRP
- shrunken log2 fold change: 0.376

Sequence: RRIRPRPPRLPRPRPRPQIYPRP
- shrunken log2 fold change: -0.858

Sequence: RRIRTRPPRLPRPRPRPNSRPRP
- shrunken log2 fold change: -0.0848

Sequence: RRIRHRPPRLPRPRPRPGLPPRP
- shrunken log2 fold change: 0.118

Sequence: RRIRRRPPRLPRPRPRPPYIPRP
- shrunken log2 fold change: 0.141

Sequence: RRIRIRPPRLPRPRPRPADLPRP
- shrunken log2 fold change: 0.0446

Sequence: RRIRTRPPRLPRPRPRPGVDPRP
- shrunken log2 fold change: 0.0151

Sequence: RRIRVRPPRLPRPRPRPFQCPRP
- shrunken log2 fold change: -0.0433

Sequence: RRIRHRPPRLPRPRPRPSRIPRP
- shrunken log2 fold change: 0.111

Sequence: RRIRIRPPRLPRPRPRPPDEPRP
- shrunken log2 fold change: -0.0174

Sequence: RRIRGRPPRLPRPRPRPCVHPRP
- shrunken log2 fold change: 0.107

Sequence: RRIRARPPRLPRPRPRPQIYPRP
- shrunken log2 fold change: -0.354

Sequence: RRIRLRPPRLPRPRPRPWISPRP
- shrunken log2 fold change: 0.0832

Sequence: RRIRVRPPRLPRPRPRPDFRPRP
- shrunken log2 fold change: 0.00256

Sequence: RRIRIRPPRLPRPRPRPTRIPRP
- shrunken log2 fold change: 0.0411

Sequence: RRIRRRPPRLPRPRPRPIDQPRP
- shrunken log2 fold change: 0.696

Sequence: RRIRTRPPRLPRPRPRPEQEPRP
- shrunken log2 fold change: -0.0113

Sequence: RRIRMRPPRLPRPRPRPRLLPRP
- shrunken log2 fold change: 0.421

Sequence: RRIRIRPPRLPRPRPRPYNAPRP
- shrunken log2 fold change: -0.734

Sequence: RRIRVRPPRLPRPRPRPGCLPRP
- shrunken log2 fold change: 0.236

Sequence: RRIRSRPPRLPRPRPRPMCKPRP
- shrunken log2 fold change: 0.204

Sequence: RRIRNRPPRLPRPRPRPPYIPRP
- shrunken log2 fold change: -0.335

Sequence: RRIRWRPPRLPRPRPRPSDYPRP
- shrunken log2 fold change: 0.0192

Sequence: RRIRARPPRLPRPRPRPARIPRP
- shrunken log2 fold change: 0.169

Sequence: RRIRNRPPRLPRPRPRPLIEPRP
- shrunken log2 fold change: -0.284

Sequence: RRIRHRPPRLPRPRPRPAWCPRP
- shrunken log2 fold change: 0.081

Sequence: RRIRVRPPRLPRPRPRPQWLPRP
- shrunken log2 fold change: 0.188

Sequence: RRIRFRPPRLPRPRPRPILFPRP
- shrunken log2 fold change: -0.0517

Sequence: RRIRIRPPRLPRPRPRPDFKPRP
- shrunken log2 fold change: 3.01

Sequence: RRIRARPPRLPRPRPRPYHGPRP
- shrunken log2 fold change: -1.67

Sequence: RRIRIRPPRLPRPRPRPDRGPRP
- shrunken log2 fold change: -0.0332

Sequence: RRIRCRPPRLPRPRPRPSSDPRP
- shrunken log2 fold change: -0.162

Sequence: RRIRGRPPRLPRPRPRPSSPPRP
- shrunken log2 fold change: -0.0496

Sequence: RRIRYRPPRLPRPRPRPAKFPRP
- shrunken log2 fold change: -0.331

Sequence: RRIRMRPPRLPRPRPRPKAQPRP
- shrunken log2 fold change: 1.72

Sequence: RRIRTRPPRLPRPRPRPSFTPRP
- shrunken log2 fold change: -0.867

Sequence: RRIRWRPPRLPRPRPRPFFLPRP
- shrunken log2 fold change: -0.0114

Sequence: RRIRSRPPRLPRPRPRPGLYPRP
- shrunken log2 fold change: -0.106

Sequence: RRIRPRPPRLPRPRPRPYIRPRP
- shrunken log2 fold change: -0.297

Sequence: RRIRARPPRLPRPRPRPNQIPRP
- shrunken log2 fold change: 0.0775

Sequence: RRIRQRPPRLPRPRPRPCPWPRP
- shrunken log2 fold change: 0.0978

Sequence: RRIRNRPPRLPRPRPRPYIDPRP
- shrunken log2 fold change: 0.0433

Sequence: RRIRNRPPRLPRPRPRPMHHPRP
- shrunken log2 fold change: -0.653

Sequence: RRIRWRPPRLPRPRPRPTGIPRP
- shrunken log2 fold change: 0.0938

Sequence: RRIRDRPPRLPRPRPRPARSPRP
- shrunken log2 fold change: 0.0403

Sequence: RRIRFRPPRLPRPRPRPCLHPRP
- shrunken log2 fold change: -0.542

Sequence: RRIRQRPPRLPRPRPRPLAWPRP
- shrunken log2 fold change: 0.15

Sequence: RRIRDRPPRLPRPRPRPQPQPRP
- shrunken log2 fold change: 0.517

Sequence: RRIRHRPPRLPRPRPRPNDYPRP
- shrunken log2 fold change: -0.56

Sequence: RRIRRRPPRLPRPRPRPWMNPRP
- shrunken log2 fold change: -0.0882

Sequence: RRIRNRPPRLPRPRPRPRIRPRP
- shrunken log2 fold change: -0.0657

Sequence: RRIRFRPPRLPRPRPRPDTCPRP
- shrunken log2 fold change: -0.21

Sequence: RRIRYRPPRLPRPRPRPWQVPRP
- shrunken log2 fold change: -0.09

Sequence: RRIRTRPPRLPRPRPRPDRSPRP
- shrunken log2 fold change: -0.287

Sequence: RRIRNRPPRLPRPRPRPPQSPRP
- shrunken log2 fold change: 0.331

Sequence: RRIRRRPPRLPRPRPRPCDGPRP
- shrunken log2 fold change: 0.0965

Sequence: RRIRVRPPRLPRPRPRPAVEPRP
- shrunken log2 fold change: 0.565

Sequence: RRIRWRPPRLPRPRPRPAHWPRP
- shrunken log2 fold change: 0.0695

Sequence: RRIRYRPPRLPRPRPRPPQFPRP
- shrunken log2 fold change: -0.213

Sequence: RRIRMRPPRLPRPRPRPETRPRP
- shrunken log2 fold change: 0.925

Sequence: RRIRARPPRLPRPRPRPWMPPRP
- shrunken log2 fold change: -0.216

Sequence: RRIRPRPPRLPRPRPRPHKVPRP
- shrunken log2 fold change: -0.429

Sequence: RRIRNRPPRLPRPRPRPFQEPRP
- shrunken log2 fold change: -0.0276

Sequence: RRIRRRPPRLPRPRPRPDQQPRP
- shrunken log2 fold change: 0.0145

Sequence: RRIRCRPPRLPRPRPRPDCSPRP
- shrunken log2 fold change: 0.072

Sequence: RRIRYRPPRLPRPRPRPIAGPRP
- shrunken log2 fold change: -0.107

Sequence: RRIRLRPPRLPRPRPRPHEDPRP
- shrunken log2 fold change: -0.682

Sequence: RRIRNRPPRLPRPRPRPLEDPRP
- shrunken log2 fold change: 0.0414

Sequence: RRIRRRPPRLPRPRPRPTGEPRP
- shrunken log2 fold change: 0.337

Sequence: RRIRIRPPRLPRPRPRPWKRPRP
- shrunken log2 fold change: -0.0143

Sequence: RRIRYRPPRLPRPRPRPMGCPRP
- shrunken log2 fold change: -0.0637

Sequence: RRIRCRPPRLPRPRPRPSDEPRP
- shrunken log2 fold change: -0.126

Sequence: RRIRIRPPRLPRPRPRPPGTPRP
- shrunken log2 fold change: 0.029

Sequence: RRIRSRPPRLPRPRPRPTFAPRP
- shrunken log2 fold change: 0.232

Sequence: RRIRIRPPRLPRPRPRPFWPPRP
- shrunken log2 fold change: -0.056

Sequence: RRIRSRPPRLPRPRPRPFWVPRP
- shrunken log2 fold change: 0.106

Sequence: RRIRDRPPRLPRPRPRPKSWPRP
- shrunken log2 fold change: 0.421

Sequence: RRIRFRPPRLPRPRPRPQMCPRP
- shrunken log2 fold change: -0.119

Sequence: RRIRKRPPRLPRPRPRPQCIPRP
- shrunken log2 fold change: -0.149

Sequence: RRIRPRPPRLPRPRPRPYQQPRP
- shrunken log2 fold change: -0.139

Sequence: RRIRDRPPRLPRPRPRPRDTPRP
- shrunken log2 fold change: 0.575

Sequence: RRIRNRPPRLPRPRPRPDLVPRP
- shrunken log2 fold change: -0.15

Sequence: RRIRHRPPRLPRPRPRPKKMPRP
- shrunken log2 fold change: -0.132

Sequence: RRIRFRPPRLPRPRPRPFISPRP
- shrunken log2 fold change: -0.691

Sequence: RRIRPRPPRLPRPRPRPFFYPRP
- shrunken log2 fold change: -0.214

Sequence: RRIRCRPPRLPRPRPRPNMPPRP
- shrunken log2 fold change: -0.627

Sequence: RRIRYRPPRLPRPRPRPTEWPRP
- shrunken log2 fold change: -0.0714

Sequence: RRIRQRPPRLPRPRPRPVIYPRP
- shrunken log2 fold change: -0.0661

Sequence: RRIRNRPPRLPRPRPRPQHYPRP
- shrunken log2 fold change: -0.319

Sequence: RRIRKRPPRLPRPRPRPFHHPRP
- shrunken log2 fold change: -0.131

Sequence: RRIRCRPPRLPRPRPRPDCMPRP
- shrunken log2 fold change: 0.0384

Sequence: RRIRCRPPRLPRPRPRPFNAPRP
- shrunken log2 fold change: -0.521

Sequence: RRIRVRPPRLPRPRPRPGDCPRP
- shrunken log2 fold change: 0.404

Sequence: RRIRRRPPRLPRPRPRPPYLPRP
- shrunken log2 fold change: 0.0685

Sequence: RRIRARPPRLPRPRPRPIDAPRP
- shrunken log2 fold change: 0.0272

Sequence: RRIRKRPPRLPRPRPRPAMKPRP
- shrunken log2 fold change: 0.141

Sequence: RRIRVRPPRLPRPRPRPGWAPRP
- shrunken log2 fold change: 0.228

Source: the supplement of paper PMC9112550, “Optimization of the antimicrobial peptide Bac7 by deep mutational scanning” (BMC Biology, 2022)
